Source: the MegaScale stability set (Tsuboyama et al. 2023)

B1: EHEE_rd4_0726 (parent)
chain: DIEITTNGEEDAKRVIKELQKRNLEYHIEVHGNQWVIKVR

Variants of: B1
Test: folding stability dG (cDNA display proteolysis); higher = more stable
Settings: PBS, room temperature

Folding stability dG [kcal/mol]: each site, then its substitutions
E9: F 2.52, V 2.15, G 1.76, H 1.92, K 2.06, D 1.5, N 1.36, M 2.12, T 1.52, I 2.48, S 1.86, P 2.46, W 3.31, L 2.36, Q 1.92, Y 2.78, R 2.19, A 2.26
G8: C 2.33, K 2.02, I 1.95, N 3.23, H 2.1, Q 1.84, M 1.69, S 3.27, F 1.97, D 2.64, P 0.219, R 2.33, W 1.75, E 1.77, V 1.92, Y 1.92, A 1.91, T 3.07, L 1.83
Q20: I 2.77, T 2.17, C 1.98, P -0.448, V 2.4, K 2.49, R 2.56, H 1.85, N 2.22, E 2.68, W 1.79, G 1.48, A 2.11, M 2.4, F 1.68, L 2.39, D 2.29, Y 1.64, S 1.9
E25: F 2.49, H 2.7, A 2.53, G 2.04, I 2.66, D 2.31
I16: F 1.02, W 0.844, L 1.83, K 0.043, R 0.31, M 2.04, H -0.379, Q 0.929, S 0.705, V 1.94, A 1.54, Y 0.637, T 1.25, E 1.34, G 0.895, N -0.729
V15: H 1.23, R 0.981, M 1.79, S 0.278, K 1.2, C 2.29, N 0.1, I 2.91, F 1.97, T 1.27, Y 1.99, L 2.2, G -0.213, W 2.41, A 1.38, Q 0.871, P -0.481, E 0.404
D11: Y 2.21, N 2.28, M 2.59, P 1.49, W 2.62, E 2.95, A 2.73, T 2.05, L 2.12, F 2.31, Q 2.63, V 1.93, G 1.92, S 2.3, I 2.03, R 1.99, H 2.52, K 1.78
L24: H 1.13, Q 1.45, A 1.7, S 1.04, P -0.114, W 2.05, R 1.65, D 0.415, Y 1.89, E 1.01, V 2.19, K 1.67, T 1.14, I 2.46, N 0.681, F 1.81, G 0.458, M 2.19
K13: R 2.71, I 2.52, N 2.32, M 2.96, Q 2.52, D 1.72, L 2.76, T 1.96, V 2.12, C 2.59, P 0.028, G 1.76, F 2.58, H 2.24, A 2.4, S 1.93, Y 2.73, E 1.97, W 3
K17: R 2.7, A 2.74, L 2.74, D 2.06, Q 2.46, S 2.31, I 2.46, E 2.49, H 2.26, W 2.36, Y 2.43, N 2.05, G 1.97, M 2.64, P 0.05, T 2.15, V 2.29, F 2.5
N7: M 2.54, L 2.47, I 2.43, A 2.19, G 1.78, T 2.34, F 2.75, Q 2.4, Y 3.03, P 1.36, W 3.1, S 2.26, V 2.29, E 2.41, H 2.42, C 2.87, K 2.1, R 2.25, D 2.4
R22: I 1.54, A 2.25, V 1.45, T 1.51, F 2.39, Q 2.45, K 2.17, L 2.88, C 2.62, H 2.33, E 1.49, D 1.33, G 1.45, M 2.66, W 2.65, Y 2.62, P 0.049, S 1.76, N 1.97
A12: T 1.74, Q 0.813, K 1.06, R 1.17, I 1.49, F 2.45, P -0.076, N 0.444, L 2.53, W 1.51, G 1.43, E -0.056, S 1.28, M 2.51, H 1.01, V 1.74, Y 1.82
E18: N 1.86, G 1.69, R 2.01, L 2.65, V 2.32, P -0.054, S 2.04, K 1.81, D 1.84, Y 2.87, Q 2.19, W 3.42, M 2.86, C 3.47, F 2.73, A 2.43, H 2.02, T 1.95, I 2.68
N23: Y 1.67, M 2.13, D 1.72, F 1.92, G 3.26, E 1.66, A 2.03, L 1.77, P 0.565, W 1.51, R 2.43, T 1.2, H 2.4, C 1.79, V 1.09, S 1.95, K 2.42, I 0.939, Q 2.18
L19: I 1.56, M 1.32, W 0.45, Y 0.81, T -0.334, A 0.721, F 1.38, V 0.98, K -0.438, C 1.59, H -0.603
R14: Q 2, L 2.3, H 1.83, F 2.24, M 2.27, V 2.04, Y 2.2, E 2.04, W 2.85, K 2.43, T 1.84, A 2.33, G 1.51, S 1.82, N 1.9, I 2.19, P 1.04, D 1.59, C 2.57
T6: V 3.55, R 1.53, S 1.47, Y 1.59, W 1.04
E10: S 1.95, D 2.25, I 2.01, V 2.02, K 2.14, R 2.18, M 2.05, L 2.15, F 2.05, H 2.02, W 2.21, Q 2.16, T 1.93, G 1.77, C 2.43, Y 2.07, P 1.52, A 2.4, N 1.93
K21: L 2.65, A 2.54, S 2.3, W 2.04, M 2.51, E 2.44, N 2.21, D 2.3, H 2.02, I 2.19, Q 2.23, V 1.91, P 0.042, G 1.86, Y 2.08, F 2.25, R 2.75, T 1.91
